Target: the molecule itself
Test: non-reducing SDS-PAGE of immunoprecipitates

B1: Rat p75 neurotrophin receptor (p75^NTR), wild type, N-terminal HA tag (receptor, UniProt P07174 30-425, looked up)
chain: KETCSTGLYTHSGECCKACNLGEGVAQPCGANQTVCEPCLDNVTFSDVVSATEPCKPCTECLGLQSMSAPCVEADDAVCRCAYGYYQDEETGHCEACSVCEVGSGLVFSCQDKQNTVCEECPEGTYSDEANHVDPCLPCTVCEDTERQLRECTPWADAECEEIPGRWIPRSTPPEGSDSTAPSTQEPEVPPEQDLVPSTVADMVTTVMGSSQPVVTRGTTDNLIPVYCSILAAVVVGLVAYIAFKRWNSCKQNKQGANSRPVNQTPPPEGEKLHSDSGISVDSQSLHDQQTHTQTASGQALKGDGNLYSSLPLTKREEVEKLLNGDTWRHLAGELGYQPEHIDSFTHEACPVRALLASWGAQDSATLDALLAALRRIQRADIVESLCSESTATSPV
In the case of B1, the “stoichiometry N” value is reported as 2.

B2: Endogenous rat p75^NTR (receptor, UniProt P07174 30-425, looked up)
chain: KETCSTGLYTHSGECCKACNLGEGVAQPCGANQTVCEPCLDNVTFSDVVSATEPCKPCTECLGLQSMSAPCVEADDAVCRCAYGYYQDEETGHCEACSVCEVGSGLVFSCQDKQNTVCEECPEGTYSDEANHVDPCLPCTVCEDTERQLRECTPWADAECEEIPGRWIPRSTPPEGSDSTAPSTQEPEVPPEQDLVPSTVADMVTTVMGSSQPVVTRGTTDNLIPVYCSILAAVVVGLVAYIAFKRWNSCKQNKQGANSRPVNQTPPPEGEKLHSDSGISVDSQSLHDQQTHTQTASGQALKGDGNLYSSLPLTKREEVEKLLNGDTWRHLAGELGYQPEHIDSFTHEACPVRALLASWGAQDSATLDALLAALRRIQRADIVESLCSESTATSPV
In the case of B2, the “stoichiometry N” value is reported as 2.

Reference: article PMC2810632 (Neuron, 2009)
